# Test results taken from article doi:10.1101/582635.
# B1: recombinant S. cerevisiae Asc1p-ybbR (RACK1 ortholog) (natural protein)
# chain: MASNEVLVLRGTLEGHNGWVTSLATSAGQPNLLLSASRDKTLISWKLTGDDQKFGVPVRSFKGHSHIVQDCTLTADGAYALSASWDKTLRLWDVATGETYQRFVGHKSDVMSVDIDKKASMIISGSRDKTIKVWTIKGQCLATLLGHNDWVSQVRVVPNEKADDDSVTIISAGNDKMVKAWNLNQFQIEADFIGHNSNINTLTASPDGTLIASAGKDGEIMLWNLAAKKAMYTLSAQDEVFSLAFSPNRYWLAAATATGIKVFSLDPQYLVDDLRPEFAGYSKAAEPHAVSLAWSADGQTLFAGYTDNVIRVWQVMTAN
# Legend:
# [1] = target: human 40S ribosomal subunit lacking RACK1 (ΔRACK1 40S) (human (endogenous in HAP1)) (UniProt P23396); assay: native gel or EMSA
# [2] = target: human 40S ribosomal subunit lacking RACK1 (ΔRACK1 40S) (human (endogenous in HAP1)) (UniProt P23396); assay: FRET or BRET
Molecule,t1/2 (half-life on the 40S subunit) [1],"kobs (fast phase, 75 nM) [2]",kon (fast phase) [2]
"RACK1-ybbR expressed in ΔRACK1 HAP1 cells (native, ribosome-bound) (from UniProt P63244 1-317) (natural protein)",15 h,–,–
B1,–,0.2 s⁻¹,2e+06 M⁻¹ s⁻¹
